The conditions of this data set: Dictyostelium discoideum, pH 6.7, Urea, Fluorescence, KH2PO4/K2HPO4 50 mM, reversible: Yes.

Hisactophilin-1 wild type, sequence (P13231 whole entry, looked up): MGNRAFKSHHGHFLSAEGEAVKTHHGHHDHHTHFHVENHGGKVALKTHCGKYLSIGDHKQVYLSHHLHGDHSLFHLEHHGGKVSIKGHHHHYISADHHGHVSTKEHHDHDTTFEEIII

As to “Hisactophilin-1 wild type (from UniProt P13231)”, the denaturant m value came to 2.66 kcal/mol/M (5 °C); 2.7 kcal/mol/M (15 °C); 2.53 kcal/mol/M (20 °C); 2.51 kcal/mol/M (25 °C); 2.28 kcal/mol/M (30 °C); 2.44 kcal/mol/M (35 °C). The denaturant m value worked out at 2.34 kcal/mol/M (40 °C) and 2.24 kcal/mol/M (45 °C). Also, the “denaturant midpoint (higher = more stable)” value came out at 2.14 M (5 °C); 2.58 M (15 °C); 2.89 M (20 °C); 2.91 M (25 °C); 2.95 M (30 °C); 2.87 M (35 °C). Besides, the “denaturant midpoint (higher = more stable)” value is 2.63 M (40 °C) and 2.45 M (45 °C). The unfolding free energy amounted to 5.37 kcal/mol (5 °C); 6.5 kcal/mol (15 °C); 6.71 kcal/mol (20 °C); 6.68 kcal/mol (25 °C); 6.08 kcal/mol (30 °C); 6.43 kcal/mol (35 °C). The unfolding free energy (40 °C) stood at 5.67 kcal/mol and the unfolding free energy (45 °C) was 5.05 kcal/mol.

Values taken from FireProtDB (doi:10.1016/j.jmb.2004.09.091).
